From patent publication US20210238260 come the findings set out here.

Sequence of Factor X (FX), P00742 (P00742 whole entry, looked up): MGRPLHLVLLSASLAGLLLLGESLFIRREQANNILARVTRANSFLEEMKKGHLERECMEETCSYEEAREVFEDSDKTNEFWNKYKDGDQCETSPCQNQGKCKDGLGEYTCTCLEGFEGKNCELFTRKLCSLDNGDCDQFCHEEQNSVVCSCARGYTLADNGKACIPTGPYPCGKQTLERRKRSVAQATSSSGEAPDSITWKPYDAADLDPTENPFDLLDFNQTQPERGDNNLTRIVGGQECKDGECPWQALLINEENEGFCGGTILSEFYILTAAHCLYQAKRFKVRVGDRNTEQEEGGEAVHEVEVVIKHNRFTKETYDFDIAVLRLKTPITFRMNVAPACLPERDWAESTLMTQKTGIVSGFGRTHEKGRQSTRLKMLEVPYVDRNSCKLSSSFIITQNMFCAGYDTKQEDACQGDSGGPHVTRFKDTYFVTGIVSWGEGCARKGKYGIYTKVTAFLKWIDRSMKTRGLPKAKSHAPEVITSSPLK
Sequence of Factor X, P00742 (P00742 whole entry, looked up): as above

B1: FIXa-Y155F/K228N/I251S/R318Y/R338E/R403E/E410N (protein)
chain 1: YNSGKLEEFVQGNLERECMEEKCSFEEAREVFENTERTTEFWKQYVDGDQCESNPCLNGGSCKDDINSYECWCPFGFEGKNCELDVTCNIKNGRCEQFCKNSADNKVVCSCTEGYRLAENQKSCEPAVPFPCGRVSVSQTSKLTR
chain 2: VVGGEDAKPGQFPWQVVLNGKVDAFCGGSIVNEKWIVTAAHCVETGVNITVVAGEHNIEETEHTEQKRNVSRIIPHHNYNAAINKYNHDIALLELDEPLVLNSYVTPICIADKEYTNIFLKFGSGYVSGWGRVFHKGYSALVLQYLRVPLVDRATCLESTKFTIYNNMFCAGFHEGGRDSCQGDSGGPHVTEVEGTSFLTGIISWGEECAMKGKYGIYTKVSEYVNWIKNKTKLT
B1: the Michaelis-Menten constant (KM) with Factor X (FX), P00742 was 0.0393 µM. In addition, in the data set with Factor X, P00742, the “% of WT kcat/KM” value is 296%, the kcat is 5.3 s⁻¹ and the specificity constant (kcat/KM) was 1.4e+08 M⁻¹ s⁻¹.

B2: FIXa K228N/K247N/N249S/R318Y/R338E/R403E/E410N (protein)
chain 1: YNSGKLEEFVQGNLERECMEEKCSFEEAREVFENTERTTEFWKQYVDGDQCESNPCLNGGSCKDDINSYECWCPFGFEGKNCELDVTCNIKNGRCEQFCKNSADNKVVCSCTEGYRLAENQKSCEPAVPFPCGRVSVSQTSKLTR
chain 2: VVGGEDAKPGQFPWQVVLNGKVDAFCGGSIVNEKWIVTAAHCVETGVNITVVAGEHNIEETEHTEQNRSVIRIIPHHNYNAAINKYNHDIALLELDEPLVLNSYVTPICIADKEYTNIFLKFGSGYVSGWGRVFHKGYSALVLQYLRVPLVDRATCLESTKFTIYNNMFCAGFHEGGRDSCQGDSGGPHVTEVEGTSFLTGIISWGEECAMKGKYGIYTKVSEYVNWIKNKTKLT
With B2, in the data set with Factor X (FX), P00742, the KM (FX activation by FIXa in the Xase complex with FVIIIa, PC/PS vesicles and Ca2+) turned out to be 0.0497 µM. Besides, in the data set with Factor X, P00742, the “% of WT kcat/KM” value is given as 352% and the catalytic efficiency (kcat/KM) is 1.6e+08 M⁻¹ s⁻¹.

B3: FIXa-K228N/K247N/N249S/R318Y/R338E/T343R/R403E (protein)
chain 1: YNSGKLEEFVQGNLERECMEEKCSFEEAREVFENTERTTEFWKQYVDGDQCESNPCLNGGSCKDDINSYECWCPFGFEGKNCELDVTCNIKNGRCEQFCKNSADNKVVCSCTEGYRLAENQKSCEPAVPFPCGRVSVSQTSKLTR
chain 2: VVGGEDAKPGQFPWQVVLNGKVDAFCGGSIVNEKWIVTAAHCVETGVNITVVAGEHNIEETEHTEQNRSVIRIIPHHNYNAAINKYNHDIALLELDEPLVLNSYVTPICIADKEYTNIFLKFGSGYVSGWGRVFHKGYSALVLQYLRVPLVDRATCLESTKFRIYNNMFCAGFHEGGRDSCQGDSGGPHVTEVEGTSFLTGIISWGEECAMKGKYGIYTKVSEYVNWIKEKTKLT
B3: the kcat (s^-1) of FX activation by FIXa variant in the Xase complex (FVIIIa, PC/PS vesicles, Ca2+), fluorogenic FXa read-out in the data set with Factor X (FX), P00742 stood at 10.9 s⁻¹. Besides, the KM in the data set with Factor X, P00742 was determined as 0.0444 µM.

B4: FIXa-K228N/R318Y/R338E/T343R/R403E/E410N (protein)
chain 1: YNSGKLEEFVQGNLERECMEEKCSFEEAREVFENTERTTEFWKQYVDGDQCESNPCLNGGSCKDDINSYECWCPFGFEGKNCELDVTCNIKNGRCEQFCKNSADNKVVCSCTEGYRLAENQKSCEPAVPFPCGRVSVSQTSKLTR
chain 2: VVGGEDAKPGQFPWQVVLNGKVDAFCGGSIVNEKWIVTAAHCVETGVNITVVAGEHNIEETEHTEQKRNVIRIIPHHNYNAAINKYNHDIALLELDEPLVLNSYVTPICIADKEYTNIFLKFGSGYVSGWGRVFHKGYSALVLQYLRVPLVDRATCLESTKFRIYNNMFCAGFHEGGRDSCQGDSGGPHVTEVEGTSFLTGIISWGEECAMKGKYGIYTKVSEYVNWIKNKTKLT
With B4, in the data set with Factor X (FX), P00742, the kcat (s^-1) of FX activation by FIXa variant in the Xase complex (FVIIIa, PC/PS vesicles, Ca2+), fluorogenic FXa read-out came out at 10.5 s⁻¹. For the same protein, the KM with Factor X, P00742 was 0.0403 µM.

B5: FIXa-K228N/K247N/N249S/R318Y/T343R/R403E/E410N (protein)
chain 1: YNSGKLEEFVQGNLERECMEEKCSFEEAREVFENTERTTEFWKQYVDGDQCESNPCLNGGSCKDDINSYECWCPFGFEGKNCELDVTCNIKNGRCEQFCKNSADNKVVCSCTEGYRLAENQKSCEPAVPFPCGRVSVSQTSKLTR
chain 2: VVGGEDAKPGQFPWQVVLNGKVDAFCGGSIVNEKWIVTAAHCVETGVNITVVAGEHNIEETEHTEQNRSVIRIIPHHNYNAAINKYNHDIALLELDEPLVLNSYVTPICIADKEYTNIFLKFGSGYVSGWGRVFHKGYSALVLQYLRVPLVDRATCLRSTKFRIYNNMFCAGFHEGGRDSCQGDSGGPHVTEVEGTSFLTGIISWGEECAMKGKYGIYTKVSEYVNWIKNKTKLT
On to B5, for which the kcat (s^-1) of FX activation by FIXa variant in the Xase complex (FVIIIa, PC/PS vesicles, Ca2+), fluorogenic FXa read-out in the data set with Factor X (FX), P00742 stood at 8.1 s⁻¹. Moreover, the Michaelis-Menten constant (KM) with Factor X, P00742 turned out to be 0.125 µM.

B6: FIXa-Y155F/K228N/K247N/N249S/R318Y/R338E/T343R/R403E/E410N (protein)
chain 1: YNSGKLEEFVQGNLERECMEEKCSFEEAREVFENTERTTEFWKQYVDGDQCESNPCLNGGSCKDDINSYECWCPFGFEGKNCELDVTCNIKNGRCEQFCKNSADNKVVCSCTEGYRLAENQKSCEPAVPFPCGRVSVSQTSKLTR
chain 2: VVGGEDAKPGQFPWQVVLNGKVDAFCGGSIVNEKWIVTAAHCVETGVNITVVAGEHNIEETEHTEQNRSVIRIIPHHNYNAAINKYNHDIALLELDEPLVLNSYVTPICIADKEYTNIFLKFGSGYVSGWGRVFHKGYSALVLQYLRVPLVDRATCLESTKFRIYNNMFCAGFHEGGRDSCQGDSGGPHVTEVEGTSFLTGIISWGEECAMKGKYGIYTKVSEYVNWIKNKTKLT
On to B6, for which the KM in the data set with Factor X (FX), P00742 stood at 0.0368 µM. For the same protein, in the data set with Factor X, P00742, the “% of WT kcat/KM” value is 646%, the kcat worked out at 9.4 s⁻¹ and the kcat/KM worked out at 3e+08 M⁻¹ s⁻¹.

B7: FIXa Y155F/K228N/K247N/N249S (protein)
chain 1: YNSGKLEEFVQGNLERECMEEKCSFEEAREVFENTERTTEFWKQYVDGDQCESNPCLNGGSCKDDINSYECWCPFGFEGKNCELDVTCNIKNGRCEQFCKNSADNKVVCSCTEGYRLAENQKSCEPAVPFPCGRVSVSQTSKLTR
chain 2: VVGGEDAKPGQFPWQVVLNGKVDAFCGGSIVNEKWIVTAAHCVETGVNITVVAGEHNIEETEHTEQNRSVIRIIPHHNYNAAINKYNHDIALLELDEPLVLNSYVTPICIADKEYTNIFLKFGSGYVSGWGRVFHKGRSALVLQYLRVPLVDRATCLRSTKFTIYNNMFCAGFHEGGRDSCQGDSGGPHVTEVEGTSFLTGIISWGEECAMKGKYGIYTKVSRYVNWIKEKTKLT
As for B7, in the data set with Factor X (FX), P00742, the KM (FX activation by FIXa in the Xase complex with FVIIIa, PC/PS vesicles and Ca2+) came to 0.0792 µM. For the same protein, in the data set with Factor X, P00742, the “% of WT kcat/KM” value worked out at 115% and the catalytic efficiency (kcat/KM) is 5.3e+07 M⁻¹ s⁻¹.

B8: FIXa-R318Y/T343R/E410N (protein)
chain 1: YNSGKLEEFVQGNLERECMEEKCSFEEAREVFENTERTTEFWKQYVDGDQCESNPCLNGGSCKDDINSYECWCPFGFEGKNCELDVTCNIKNGRCEQFCKNSADNKVVCSCTEGYRLAENQKSCEPAVPFPCGRVSVSQTSKLTR
chain 2: VVGGEDAKPGQFPWQVVLNGKVDAFCGGSIVNEKWIVTAAHCVETGVKITVVAGEHNIEETEHTEQKRNVIRIIPHHNYNAAINKYNHDIALLELDEPLVLNSYVTPICIADKEYTNIFLKFGSGYVSGWGRVFHKGYSALVLQYLRVPLVDRATCLRSTKFRIYNNMFCAGFHEGGRDSCQGDSGGPHVTEVEGTSFLTGIISWGEECAMKGKYGIYTKVSRYVNWIKNKTKLT
Regarding B8, in the data set with Factor X (FX), P00742, the kcat (s^-1) of FX activation by FIXa variant in the Xase complex (FVIIIa, PC/PS vesicles, Ca2+), fluorogenic FXa read-out turned out to be 3.2 s⁻¹. In the data set with Factor X, P00742, the KM amounted to 0.0523 µM.

B9: FIXa-K228N/K247N/N249S/R318Y/R338E/T343R/E410N (protein)
chain 1: YNSGKLEEFVQGNLERECMEEKCSFEEAREVFENTERTTEFWKQYVDGDQCESNPCLNGGSCKDDINSYECWCPFGFEGKNCELDVTCNIKNGRCEQFCKNSADNKVVCSCTEGYRLAENQKSCEPAVPFPCGRVSVSQTSKLTR
chain 2: VVGGEDAKPGQFPWQVVLNGKVDAFCGGSIVNEKWIVTAAHCVETGVNITVVAGEHNIEETEHTEQNRSVIRIIPHHNYNAAINKYNHDIALLELDEPLVLNSYVTPICIADKEYTNIFLKFGSGYVSGWGRVFHKGYSALVLQYLRVPLVDRATCLESTKFRIYNNMFCAGFHEGGRDSCQGDSGGPHVTEVEGTSFLTGIISWGEECAMKGKYGIYTKVSRYVNWIKNKTKLT
B9: the kcat (s^-1) of FX activation by FIXa variant in the Xase complex (FVIIIa, PC/PS vesicles, Ca2+), fluorogenic FXa read-out in the data set with Factor X (FX), P00742 amounted to 4.7 s⁻¹. The KM in the data set with Factor X, P00742 was 0.0381 µM.

B10: FIXa-Y155F/N260S/R318Y/R338E/T343R/R403E/E410N (protein)
chain 1: YNSGKLEEFVQGNLERECMEEKCSFEEAREVFENTERTTEFWKQYVDGDQCESNPCLNGGSCKDDINSYECWCPFGFEGKNCELDVTCNIKNGRCEQFCKNSADNKVVCSCTEGYRLAENQKSCEPAVPFPCGRVSVSQTSKLTR
chain 2: VVGGEDAKPGQFPWQVVLNGKVDAFCGGSIVNEKWIVTAAHCVETGVKITVVAGEHNIEETEHTEQKRNVIRIIPHHNYSAAINKYNHDIALLELDEPLVLNSYVTPICIADKEYTNIFLKFGSGYVSGWGRVFHKGYSALVLQYLRVPLVDRATCLESTKFRIYNNMFCAGFHEGGRDSCQGDSGGPHVTEVEGTSFLTGIISWGEECAMKGKYGIYTKVSEYVNWIKNKTKLT
Turning to B10, the KM with Factor X (FX), P00742 turned out to be 0.0402 µM. Further, in the data set with Factor X, P00742, the “% of WT kcat/KM” value is 335%, the kcat was determined as 5.8 s⁻¹ and the catalytic efficiency (kcat/KM) is 1.5e+08 M⁻¹ s⁻¹.

B11: FIXa-K228N/K247N/N249S/R318Y/R338E/T343R/R403E/E410N (protein)
chain 1: YNSGKLEEFVQGNLERECMEEKCSFEEAREVFENTERTTEFWKQYVDGDQCESNPCLNGGSCKDDINSYECWCPFGFEGKNCELDVTCNIKNGRCEQFCKNSADNKVVCSCTEGYRLAENQKSCEPAVPFPCGRVSVSQTSKLTR
chain 2: VVGGEDAKPGQFPWQVVLNGKVDAFCGGSIVNEKWIVTAAHCVETGVNITVVAGEHNIEETEHTEQNRSVIRIIPHHNYNAAINKYNHDIALLELDEPLVLNSYVTPICIADKEYTNIFLKFGSGYVSGWGRVFHKGYSALVLQYLRVPLVDRATCLESTKFRIYNNMFCAGFHEGGRDSCQGDSGGPHVTEVEGTSFLTGIISWGEECAMKGKYGIYTKVSEYVNWIKNKTKLT
Take B11: the KM with Factor X (FX), P00742 was determined as 0.0251 µM. Moreover, in the data set with Factor X, P00742, the “% of WT kcat/KM” value is given as 880%, the catalytic constant (kcat) turned out to be 9.9 s⁻¹ and the kcat/KM turned out to be 4.1e+08 M⁻¹ s⁻¹.

B12: FIXa-N260S/R318Y/R338E/T343R/R403E/E410N (protein)
chain 1: YNSGKLEEFVQGNLERECMEEKCSFEEAREVFENTERTTEFWKQYVDGDQCESNPCLNGGSCKDDINSYECWCPFGFEGKNCELDVTCNIKNGRCEQFCKNSADNKVVCSCTEGYRLAENQKSCEPAVPFPCGRVSVSQTSKLTR
chain 2: VVGGEDAKPGQFPWQVVLNGKVDAFCGGSIVNEKWIVTAAHCVETGVKITVVAGEHNIEETEHTEQKRNVIRIIPHHNYSAAINKYNHDIALLELDEPLVLNSYVTPICIADKEYTNIFLKFGSGYVSGWGRVFHKGYSALVLQYLRVPLVDRATCLESTKFRIYNNMFCAGFHEGGRDSCQGDSGGPHVTEVEGTSFLTGIISWGEECAMKGKYGIYTKVSEYVNWIKNKTKLT
Consider B12, for which, in the data set with Factor X (FX), P00742, the KM was determined as 0.0321 µM. For the same protein, in the data set with Factor X, P00742, the “% of WT kcat/KM” value is recorded as 638%, the kcat was determined as 8.9 s⁻¹ and the specificity constant (kcat/KM) is 2.9e+08 M⁻¹ s⁻¹.

For orientation: KM means the substrate concentration at which the rate is half of its maximum. By kcat is commonly meant the number of substrate molecules converted per active site and unit of time at saturation. Usually kcat/KM stands for the turnover number divided by the Michaelis constant.
